The record followed here is patent publication US20140087995A1 (published 2014).

Numbered stars: 1 amine (or outer) side, 2 acyl side, 3 side chain; on linkers, the order of the positions; unused ones are H or OH. Bridge positions count the residues as written; N and C are the ends. * marks the point of attachment. C20 diacid = O=C(O)CCCCCCCCCCCCCCCCCCC(=O)*; γGlu = O=C(O)[C@H](CCC(=O)[*:2])N[*:1]

Assay [1] deals with T1, human calcitonin receptor (human, UniProt P30988 25-474).
T1 sequence (looked up): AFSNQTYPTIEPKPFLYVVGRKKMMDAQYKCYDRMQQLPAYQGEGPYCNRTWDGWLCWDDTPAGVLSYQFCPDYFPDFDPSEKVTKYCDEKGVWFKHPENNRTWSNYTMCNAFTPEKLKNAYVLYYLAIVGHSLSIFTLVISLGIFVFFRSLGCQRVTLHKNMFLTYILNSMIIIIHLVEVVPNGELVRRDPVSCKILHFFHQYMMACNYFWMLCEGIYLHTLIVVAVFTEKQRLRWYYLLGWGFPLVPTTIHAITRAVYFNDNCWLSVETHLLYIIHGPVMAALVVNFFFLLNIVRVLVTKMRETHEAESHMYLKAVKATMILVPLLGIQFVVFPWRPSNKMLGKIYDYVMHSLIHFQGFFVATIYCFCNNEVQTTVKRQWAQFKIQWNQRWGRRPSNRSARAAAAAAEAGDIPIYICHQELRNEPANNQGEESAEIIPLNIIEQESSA
The experiment in a line: cell-based or functional assay.

Assay [2] concerns the target T2, human amylin receptor (amylin 3(a) receptor: human calcitonin receptor plus RAMP-3) (human, UniProt P30988 25-474; O60896 24-148).
T2 sequence (looked up) 1: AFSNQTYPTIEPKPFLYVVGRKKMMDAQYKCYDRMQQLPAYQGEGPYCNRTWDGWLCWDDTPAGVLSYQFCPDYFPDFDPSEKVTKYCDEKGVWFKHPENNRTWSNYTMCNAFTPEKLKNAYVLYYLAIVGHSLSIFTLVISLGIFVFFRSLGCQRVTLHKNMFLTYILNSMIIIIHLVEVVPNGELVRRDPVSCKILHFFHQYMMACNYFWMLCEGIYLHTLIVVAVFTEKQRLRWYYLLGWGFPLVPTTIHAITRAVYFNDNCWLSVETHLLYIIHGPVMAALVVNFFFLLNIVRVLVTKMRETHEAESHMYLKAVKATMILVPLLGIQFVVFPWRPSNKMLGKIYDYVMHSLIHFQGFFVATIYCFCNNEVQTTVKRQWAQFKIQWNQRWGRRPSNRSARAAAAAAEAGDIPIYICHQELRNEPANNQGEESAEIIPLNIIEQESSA
T2 sequence (looked up) 2: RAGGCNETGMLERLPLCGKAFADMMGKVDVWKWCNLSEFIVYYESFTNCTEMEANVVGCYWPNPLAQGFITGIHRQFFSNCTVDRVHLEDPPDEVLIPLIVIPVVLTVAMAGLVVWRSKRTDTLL
Kind of assay: cell-based or functional assay.

The target in assay [3] is T2, human amylin receptor (amylin 3(a) …). Kind of assay: SPA competition binding, displacement of 125I-rat amylin, membranes of BHK amylin 3(a)/CRE-luc cells. Here is the method: The binding assay was performed using scintillation proximity assay (SPA) beads (RPNQ0001) from PerkinElmer and cell membranes from the Amylin 3(a)/CRE-luc cells (as described in Assay (II)) were used. Membranes were prepared in the following way; the cells were rinsed with PBS and incubated with Versene for approximately 5 min before harvesting. The cells were flushed with PBS and the cell-suspension was centrifuged for 5 min at 1000 rpm. Cells were homogenized (ultrathurrax) in a buffer containing 20 mM Na-HEPES and 10 mM EDTA (pH 7.4) and centrifuged at 20.000 rpm for 15 min. The resulting pellet was resuspended, homogenized and centrifuged (20.000 rpm, 15 min) in a buffer containing 20 mM Na-HEPES and 0.1 mM EDTA (pH 7.4, buffer 2). The resulting pellet was resuspended in buffer 2 and protein concentration was measured (BCA protein Assay, Pierce). The homogenate was kept cold during the whole procedure. The membranes were kept at −80° C. until use. The assay was performed in a 384 well Optiplate (PerkinElmer) in a total volume of 40 ul. Membranes were mixed with SPA beads. Final concentration of membranes 35 ng/μL final and SPA beads was 0.05 mg/well. Test-compounds were dissolved in DMSO and further diluted in assay buffer (50 mM Hepes, pH 7.4, 1 mM CaCl2, 5 mM MgCl₂, 0.1% OA and 0.02% Tween20). […] The final mixture was incubated with shaking at 400 rpm for 120 min at 25° C. prior to centrifugation (1500 rpm, 10 min). Samples were analyzed on TopCounter™ (Packard). The IC₅₀ was calculated using (one site binding competition analysis) GraphPad Prism5 as a measure of receptor affinity.

B1: N^α1N^α1-[(4S)-4-carboxy-4-(19-carboxynonadecanoylamino)butanoyl]-[Glu14,Arg17,Pro21,Pro27,Glu35]-h-amylin (peptide)
peptide: {C20 diacid-γGlu}-KCNTATCATQRLAEFLRHSSPNFGAIPSSTNVGSETY-NH2
modifications: disulfide 2-7
SMILES: CC[C@H](C)[C@H](NC(=O)[C@H](C)NC(=O)CNC(=O)[C@H](Cc1ccccc1)NC(=O)[C@H](CC(N)=O)NC(=O)[C@@H]1CCCN1C(=O)[C@H](CO)NC(=O)[C@H](CO)NC(=O)[C@H](Cc1c[nH]cn1)NC(=O)[C@H](CCCNC(=N)N)NC(=O)[C@H](CC(C)C)NC(=O)[C@H](Cc1ccccc1)NC(=O)[C@H](CCC(=O)O)NC(=O)[C@H](C)NC(=O)[C@H](CC(C)C)NC(=O)[C@H](CCCNC(=N)N)NC(=O)[C@H](CCC(N)=O)NC(=O)[C@@H](NC(=O)[C@H](C)NC(=O)[C@@H]1CSSC[C@H](NC(=O)[C@H](CCCCN)NC(=O)CC[C@H](NC(=O)CCCCCCCCCCCCCCCCCCC(=O)O)C(=O)O)C(=O)N[C@@H](CC(N)=O)C(=O)N[C@@H]([C@@H](C)O)C(=O)N[C@@H](C)C(=O)N[C@@H]([C@@H](C)O)C(=O)N1)[C@@H](C)O)C(=O)N1CCC[C@H]1C(=O)N[C@@H](CO)C(=O)N[C@@H](CO)C(=O)N[C@H](C(=O)N[C@@H](CC(N)=O)C(=O)N[C@H](C(=O)NCC(=O)N[C@@H](CO)C(=O)N[C@@H](CCC(=O)O)C(=O)N[C@H](C(=O)N[C@@H](Cc1ccc(O)cc1)C(N)=O)[C@@H](C)O)C(C)C)[C@@H](C)O
notes: also called compound 22
Take B1: in assay [1], the “hCTR funct. EC50 (pM)” value came out at 1030 pM. Besides, in assay [2], the “Ratio hCT/hAmylin funct.” value turned out to be 3.8 and the “hAmylin-R funct. EC50 (pM)” value was found to be 270 pM. The IC50 in assay [3] came out at 0.794 nM.

B2: N^α1-[(4S)-4-carboxy-4-(19-carboxynonadecanoylamino)butanoyl]-[Glu14,Arg17,Pro21,Pro28,Glu35]-h-amylin (peptide)
peptide: {C20 diacid-γGlu}-KCNTATCATQRLAEFLRHSSPNFGAILPSTNVGSETY-NH2
modifications: disulfide 2-7
notes: also called compound 33
With B2, the “hCTR funct. EC50 (pM)” value in assay [1] was 528 pM. Further, in assay [2], the “Ratio hCT/hAmylin funct.” value stood at 2.2 and the “hAmylin-R funct. EC50 (pM)” value was found to be 243 pM. Besides, the IC50 in assay [3] was determined as 0.915 nM.

B3: N^α1-[(4S)-4-carboxy-4-(19-carboxynonadecanoylamino)butanoyl]-[Glu14,Arg17,Pro21,Pro27,His35]-h-amylin (peptide)
peptide: {C20 diacid-γGlu}-KCNTATCATQRLAEFLRHSSPNFGAIPSSTNVGSHTY-NH2
modifications: disulfide 2-7
SMILES: CC[C@H](C)[C@H](NC(=O)[C@H](C)NC(=O)CNC(=O)[C@H](Cc1ccccc1)NC(=O)[C@H](CC(N)=O)NC(=O)[C@@H]1CCCN1C(=O)[C@H](CO)NC(=O)[C@H](CO)NC(=O)[C@H](Cc1c[nH]cn1)NC(=O)[C@H](CCCNC(=N)N)NC(=O)[C@H](CC(C)C)NC(=O)[C@H](Cc1ccccc1)NC(=O)[C@H](CCC(=O)O)NC(=O)[C@H](C)NC(=O)[C@H](CC(C)C)NC(=O)[C@H](CCCNC(=N)N)NC(=O)[C@H](CCC(N)=O)NC(=O)[C@@H](NC(=O)[C@H](C)NC(=O)[C@@H]1CSSC[C@H](NC(=O)[C@H](CCCCN)NC(=O)CC[C@H](NC(=O)CCCCCCCCCCCCCCCCCCC(=O)O)C(=O)O)C(=O)N[C@@H](CC(N)=O)C(=O)N[C@@H]([C@@H](C)O)C(=O)N[C@@H](C)C(=O)N[C@@H]([C@@H](C)O)C(=O)N1)[C@@H](C)O)C(=O)N1CCC[C@H]1C(=O)N[C@@H](CO)C(=O)N[C@@H](CO)C(=O)N[C@H](C(=O)N[C@@H](CC(N)=O)C(=O)N[C@H](C(=O)NCC(=O)N[C@@H](CO)C(=O)N[C@@H](Cc1c[nH]cn1)C(=O)N[C@H](C(=O)N[C@@H](Cc1ccc(O)cc1)C(N)=O)[C@@H](C)O)C(C)C)[C@@H](C)O
notes: also called compound 18
On to B3, for which the “hCTR funct. EC50 (pM)” value in assay [1] came to 742 pM. Besides, in assay [2], the “Ratio hCT/hAmylin funct.” value stood at 4.8 and the “hAmylin-R funct. EC50 (pM)” value came out at 154 pM. The IC50 in assay [3] was 0.554 nM.

B4: N^α1-[(4S)-4-carboxy-4-(19-carboxynonadecanoylamino)butanoyl]-[Arg17,Pro21,Pro27,Pro31,Glu35]-h-amylin (peptide)
peptide: {C20 diacid-γGlu}-KCNTATCATQRLANFLRHSSPNFGAIPSSTPVGSETY-NH2
modifications: disulfide 2-7
SMILES: CC[C@H](C)[C@H](NC(=O)[C@H](C)NC(=O)CNC(=O)[C@H](Cc1ccccc1)NC(=O)[C@H](CC(N)=O)NC(=O)[C@@H]1CCCN1C(=O)[C@H](CO)NC(=O)[C@H](CO)NC(=O)[C@H](Cc1c[nH]cn1)NC(=O)[C@H](CCCNC(=N)N)NC(=O)[C@H](CC(C)C)NC(=O)[C@H](Cc1ccccc1)NC(=O)[C@H](CC(N)=O)NC(=O)[C@H](C)NC(=O)[C@H](CC(C)C)NC(=O)[C@H](CCCNC(=N)N)NC(=O)[C@H](CCC(N)=O)NC(=O)[C@@H](NC(=O)[C@H](C)NC(=O)[C@@H]1CSSC[C@H](NC(=O)[C@H](CCCCN)NC(=O)CC[C@H](NC(=O)CCCCCCCCCCCCCCCCCCC(=O)O)C(=O)O)C(=O)N[C@@H](CC(N)=O)C(=O)N[C@@H]([C@@H](C)O)C(=O)N[C@@H](C)C(=O)N[C@@H]([C@@H](C)O)C(=O)N1)[C@@H](C)O)C(=O)N1CCC[C@H]1C(=O)N[C@@H](CO)C(=O)N[C@@H](CO)C(=O)N[C@H](C(=O)N1CCC[C@H]1C(=O)N[C@H](C(=O)NCC(=O)N[C@@H](CO)C(=O)N[C@@H](CCC(=O)O)C(=O)N[C@H](C(=O)N[C@@H](Cc1ccc(O)cc1)C(N)=O)[C@@H](C)O)C(C)C)[C@@H](C)O
notes: also called compound 28
Turning to B4, the “hCTR funct. EC50 (pM)” value in assay [1] came out at 2030 pM. Besides, in assay [2], the “Ratio hCT/hAmylin funct.” value amounted to 9.2 and the “hAmylin-R funct. EC50 (pM)” value turned out to be 220 pM. For the same molecule, in assay [3], the IC50 came out at 0.61 nM.

B5: N^α1-[(4S)-4-carboxy-4-(19-carboxynonadecanoylamino)butanoyl]-[Arg17,Pro21,Pro27,Pro34,Glu35]-h-amylin (peptide)
peptide: {C20 diacid-γGlu}-KCNTATCATQRLANFLRHSSPNFGAIPSSTNVGPETY-NH2
modifications: disulfide 2-7
SMILES: CC[C@H](C)[C@H](NC(=O)[C@H](C)NC(=O)CNC(=O)[C@H](Cc1ccccc1)NC(=O)[C@H](CC(N)=O)NC(=O)[C@@H]1CCCN1C(=O)[C@H](CO)NC(=O)[C@H](CO)NC(=O)[C@H](Cc1c[nH]cn1)NC(=O)[C@H](CCCNC(=N)N)NC(=O)[C@H](CC(C)C)NC(=O)[C@H](Cc1ccccc1)NC(=O)[C@H](CC(N)=O)NC(=O)[C@H](C)NC(=O)[C@H](CC(C)C)NC(=O)[C@H](CCCNC(=N)N)NC(=O)[C@H](CCC(N)=O)NC(=O)[C@@H](NC(=O)[C@H](C)NC(=O)[C@@H]1CSSC[C@H](NC(=O)[C@H](CCCCN)NC(=O)CC[C@H](NC(=O)CCCCCCCCCCCCCCCCCCC(=O)O)C(=O)O)C(=O)N[C@@H](CC(N)=O)C(=O)N[C@@H]([C@@H](C)O)C(=O)N[C@@H](C)C(=O)N[C@@H]([C@@H](C)O)C(=O)N1)[C@@H](C)O)C(=O)N1CCC[C@H]1C(=O)N[C@@H](CO)C(=O)N[C@@H](CO)C(=O)N[C@H](C(=O)N[C@@H](CC(N)=O)C(=O)N[C@H](C(=O)NCC(=O)N1CCC[C@H]1C(=O)N[C@@H](CCC(=O)O)C(=O)N[C@H](C(=O)N[C@@H](Cc1ccc(O)cc1)C(N)=O)[C@@H](C)O)C(C)C)[C@@H](C)O
notes: also called compound 29
On to B5, for which, in assay [1], the “hCTR funct. EC50 (pM)” value was determined as 857 pM. In addition, in assay [2], the “Ratio hCT/hAmylin funct.” value was 8.7 and the “hAmylin-R funct. EC50 (pM)” value worked out at 99 pM. Also, the half-inhibitory concentration (IC50) in assay [3] was 0.577 nM.

B6: N^α1-[(4S)-4-carboxy-4-(19-carboxynonadecanoylamino)butanoyl]-[Arg17,Pro21,Pro27,Glu35]-h-amylin (peptide)
peptide: KCNTATCATQRLANFLRHSSPNFGAIPSSTNVGSETY
modifications: C20 diacid-gGlu on the alpha amino group of the N-terminal residue (Lys1); disulfide Cys2-Cys7 and C-terminal amide as in human amylin
notes: also called compound 23
In the case of B6, in assay [1], the “hCTR funct. EC50 (pM)” value was found to be 3020 pM. Further, in assay [2], the “Ratio hCT/hAmylin funct.” value stood at 8.9 and the “hAmylin-R funct. EC50 (pM)” value came out at 340 pM. The IC50 in assay [3] is 0.871 nM.
